The values below come from publication PMC9946822.

For the data set, the target named is MtAHL1 (Medicago truncatula) (UniProt G7JGG2). The data set can be described thus: EMSA. Particulars: EMSA as in Chen (ref. 37), 10 ng probe and 200 ng protein (titration 0-300 ng), SYBR Gold stain; binding buffer, pH and temperature not stated; protein eluted …. A general note: Mobility shift assays separate free from complexed probe on a gel.
Sequence of MtAHL1 (Medicago truncatula) (G7JGG2 entry or part of it): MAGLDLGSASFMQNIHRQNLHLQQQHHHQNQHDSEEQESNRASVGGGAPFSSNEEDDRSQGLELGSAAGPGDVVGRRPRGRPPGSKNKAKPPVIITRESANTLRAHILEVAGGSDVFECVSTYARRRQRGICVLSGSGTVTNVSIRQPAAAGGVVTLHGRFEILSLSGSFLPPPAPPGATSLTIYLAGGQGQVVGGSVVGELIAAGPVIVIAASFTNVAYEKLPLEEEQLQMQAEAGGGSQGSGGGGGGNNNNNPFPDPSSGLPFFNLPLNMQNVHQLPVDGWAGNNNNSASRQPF
For “GAAAGTAATAATTTTGAGACATCTATTCTATGAGCCAAAGAGACAACTACGATACATCAACGTATTAAAGAGACATTTAATAATTATTTTAATTTTCAAAAAGTATTAATTAC (double strand) [probe C]”, the binding result was “binds”.

“GAGATAGGAAAACCAATATTATATTATGTTGATATGAGTGGGTGTGGAATCACACAACGTGAATAAGGTCTCTTGTTTGAGTCTTGTGGTTAAATAAAACGTG (double strand) [probe A]”: the binding entry is reported as “binds more weakly”.

Regarding “CCCATTGTTTTTCCCCTTTGCGTGAAATAAGTGTAAAATTATTTTATCACTTTATATAGTAAAAAATCAAATGATATGTTTACATCAACAAAACAGTTTTTAATAATTATGTTGTTGTAATTAATAC (double strand) [probe D]”, the binding result is “binds more weakly”.

For “GACAACTACGATACATCAACGTATTAAAGAGACATTTAATAATTATTTTAATTTTCAAAAAGTATTAATTACAACAACATAATTATTAAAAACTGTTTTGTTGATGTAAACATATC (double strand) [probe G]”, the binding entry is reported as “binds”.

In the case of “CTTTCTTTTATACAAATCATAAAATTATTACTTATAAATAGAGCTCATTATTGTTTAACAACCTTTCATTATTATTTTTTATTTCTTAGCCAGCCTTTCATAATAGAG (double strand) [probe B]”, the binding result is reported as “binds more weakly”.

For the sequence “GTTAAACAATAATGAGCTCTATTTATAAGTAATAATTTTATGATTTGTATAAAAGAAAGTAATAATTTTGAGACATCTATTCTATGAGCCAAAGAGACAAC (double strand) [probe F]”, the binding entry is given as “binds more weakly”.

Turning to “GTTTAACAACCTTTCATTATTATTTTTTATTTCTTAGCCAGCCTTTCATAATAGAGATAGGAAAACCAATATTATATTATGTTGATATGAGTGGGTGTGGAATCA (double strand) [probe E]”, the binding result is reported as “binds more weakly”.
